Drawing on PMC11844729, this text covers stoichiometry N and fold residence time on F-actin against utrophin for one substance.

The target of assay [1] is mN2G^CH (N-terminal CH domains of nesprin-2G only) (mouse). In words: mass photometry.
The target in assay [2] is F-actin (actin filaments from rabbit skeletal muscle actin) (rabbit) (UniProt P68135). The assay can be described thus: single-molecule TIRF microscopy.

Take “mN2G^CH (N-terminal CH domains of nesprin-2G only) (domain or fragment)”: the stoichiometry N in assay [1] is 2. This substance also yielded a fold residence time on F-actin against utrophin in assay [2] above 2 fold.
